Results published in patent publication US20220033483A1 (GUAGNDONG FEIPENG BIOLOGICAL, published 2022).
Where a chain is given by its changes, count along the chain named. Values belong to the binder of their own block, whether it stands above or below them.

Target: T1, cTnI quality control product recombinant protein (human, UniProt P19429 1-210, limits assumed)
T1 construct: the assay paragraphs only say cTnI; also called cardiac troponin I; cTnI antigen
Test: AMC biosensor, antibody on sensor
Description: Operating process: it is equilibrated in Buffer 1 (PBST) for 60 s, the antibody is immobilized in an antibody solution for 300 s, incubated in Buffer 2 (PBST) for 180 s, bound in antigen solution for 420 s, dissociated in the Buffer 2 for 1200 s, 10 mM of GLY solution with pH 1.69 and Buffer 3 are used for sensor regeneration, and data is output.

T1 sequence (P19429 whole entry): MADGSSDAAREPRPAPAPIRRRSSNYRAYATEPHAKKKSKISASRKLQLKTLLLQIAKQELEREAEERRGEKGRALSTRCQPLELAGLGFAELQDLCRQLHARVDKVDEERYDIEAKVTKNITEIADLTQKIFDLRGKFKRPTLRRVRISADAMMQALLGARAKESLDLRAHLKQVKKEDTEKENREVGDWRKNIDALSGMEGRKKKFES

B1: Mutation 1-34 (antibody, V domains shown)
VH: QVQLQQSGTELAKPGASVKFSCKASGYTFTSYWMYWIKQRPGQGLEWIGYINPSSGHTDYNQKFKDKATLTADKSSSTAYMQLNSLTSEDSAVYYCARKYYGPFGMDYWGQGTSVTVSS
VL: EIFLTQSPAIMSASPGEKVTMTCSASTTVSYVHWYQQKSGTSPKRWLYDTSKLASGIPVRFSGSGSGTSYSLTISSMEAEDAATYYCQQWSSNPYTFGGGTKLEIKR
Kd: 0.404 nM
koff: 1.92e-05 s⁻¹

B3: Mutation 1-17 (antibody, V domains shown)
VH: B1 VH with T30S, S55T, K63R, Y101W
VL: B1 VL with T27S, T28S, L47I, L53I, N93Q
Kd: 2.98 nM
koff: 9.97e-05 s⁻¹
kon: 33500 M⁻¹ s⁻¹

B4: Mutation 1-45 (antibody, V domains shown)
VH: B1 VH with T30S, I51L, S55T, K63R, Y101W
VL: B1 VL with T27S, N93Q
Kd: 3.7 nM
koff: 9.65e-05 s⁻¹
kon: 26100 M⁻¹ s⁻¹

B5: Mutation 1-14 (antibody, V domains shown)
VH: B1 VH with I51L, S55T, K99R, Y101W
VL: B1 VL with T27S, S92T, N93Q
Kd: 7.84 nM
koff: 0.000217 s⁻¹
kon: 27700 M⁻¹ s⁻¹

B8: Mutation 1-29 (antibody, V domains shown)
VH: B1 VH with T30S, Y101W
VL: B1 VL with T27S, T28S, L47I, L53I
Kd: 0.96 nM
koff: 1.52e-05 s⁻¹
kon: 15800 M⁻¹ s⁻¹

B9: Mutation 1-31 (antibody, V domains shown)
VH: B1 VH with S31T, S55T, K99R
VL: B1 VL with T27S, T28S, L47I
Kd: 12.7 nM
koff: 0.000365 s⁻¹
kon: 24000 M⁻¹ s⁻¹

B10: Mutation 1-41 (antibody, V domains shown)
VH: B1 VH with T30S, S55T, K63R, K99R
VL: B1 VL with T28S, L47I, L53I, N93Q
Kd: 3.27 nM
koff: 6.06e-05 s⁻¹
kon: 18500 M⁻¹ s⁻¹

B12: Mutation 1-15 (antibody, V domains shown)
VH: B1 VH with S31T, I51L, K63R, Y101F
VL: B1 VL with T28S, L47I, S92T, N93Q
notes: CDR-VL3 cell prints 'TQ', read as T/Q
Kd: 1.16 nM
koff: 2.1e-05 s⁻¹
kon: 18100 M⁻¹ s⁻¹

B13: Mutation 1-38 (antibody, V domains shown)
VH: B1 VH with I51L
VL: B1 VL with T27S
Kd: 7.3 nM
koff: 0.000223 s⁻¹
kon: 30500 M⁻¹ s⁻¹

B15: Mutation 1-37 (antibody, V domains shown)
VH: B1 VH with T30S, I51L, S55T, K63R, Y101F
VL: B1 VL with T28S, L47I, S92T, N93Q
Kd: 8.01 nM
koff: 0.000268 s⁻¹
kon: 33400 M⁻¹ s⁻¹

B16: Mutation 1-26 (antibody, V domains shown)
VH: B1 VH with S31T, I51L, S55T, K99R, Y101W
VL: B1 VL with T27S
Kd: 2.08 nM
koff: 3.31e-05 s⁻¹
kon: 15900 M⁻¹ s⁻¹

B17: Mutation 1-43 (antibody, V domains shown)
VH: B1 VH with S55T, Y101F
VL: B1 VL with T28S, L47I, S92T, N93Q
Kd: 12.9 nM
koff: 0.000368 s⁻¹
kon: 28600 M⁻¹ s⁻¹

B18: Mutation 1-39 (antibody, V domains shown)
VH: B1 VH with S31T, I51L, S55T, Y101W
VL: B1 VL with T28S, L47I, S92T, N93Q
Kd: 1.03 nM
koff: 2.79e-05 s⁻¹
kon: 27000 M⁻¹ s⁻¹

B19: Mutation 1-27 (antibody, V domains shown)
VH: B1 VH with I51L, Y101F
VL: B1 VL with T28S, L47I
Kd: 9.42 nM
koff: 0.000372 s⁻¹
kon: 39500 M⁻¹ s⁻¹

B20: Mutation 1-42 (antibody, V domains shown)
VH: B1 VH with K99R, Y101W
VL: B1 VL with T27S
Kd: 7.37 nM
koff: 0.000362 s⁻¹
kon: 49100 M⁻¹ s⁻¹

B25: WT 1-5 (antibody, V domains shown)
VH: B1 VH with G26D, T30S, I51L, S55T, D59E, Y101W, G105A
VL: B1 VL with T27S, T28S, V32A, L47I, T50S, L53I, Q89N, S92T
Kd: 48.6 nM
koff: 0.0017 s⁻¹
kon: 35000 M⁻¹ s⁻¹

B27: WT 1-7 (antibody, V domains shown)
VH: B1 VH with G26D, S31T, I51L, S55T, D59E, K99R, G105A
VL: B1 VL with T28S, V32A, L47I, T50S, Q89N, S92T
Kd: 28.6 nM
koff: 0.000795 s⁻¹
kon: 27800 M⁻¹ s⁻¹

B28: WT 1-1 (antibody, V domains shown)
VH: B1 VH with G26D, T30S, S31T, S55T, D59E, K99R, G105A
VL: B1 VL with T27S, T28S, V32A, L47I, T50S, L53I, Q89N, S92T
Kd: 68.4 nM
koff: 0.00165 s⁻¹
kon: 24100 M⁻¹ s⁻¹

B29: Mutation 1-36 (antibody, V domains shown)
VH: B1 VH with T30S, S31T, K63R, K99R, Y101W
VL: B1 VL with T27S, L53I, S92T
Kd: 5.49 nM
koff: 9.5e-05 s⁻¹
kon: 17300 M⁻¹ s⁻¹

B34: Mutation 1-54 (antibody, V domains shown)
VH: B1 VH with T30S, I51L, K99R, Y101F
VL: B1 VL with L53I, S92T, N93Q
Kd: 1.63 nM
koff: 7.3e-05 s⁻¹
kon: 44900 M⁻¹ s⁻¹

B35: WT 1-8 (antibody, V domains shown)
VH: B1 VH with G26D, T30S, S31T, S55T, D59E, K99R, Y101W, G105A
VL: B1 VL with V32A, T50S, L53I, Q89N, S92T, N93Q
Kd: 75.1 nM
koff: 0.00221 s⁻¹
kon: 29400 M⁻¹ s⁻¹

B37: Mutation 1-55 (antibody, V domains shown)
VH: B1 VH with T30S, S31T, I51L
VL: B1 VL with L47I, S92T
notes: T0002 combination 56 prints L/L
Kd: 2.07 nM
koff: 6.36e-05 s⁻¹
kon: 30700 M⁻¹ s⁻¹

The remaining lines, values ahead:

Kd: 6.54 nM
koff: 7.12e-05 s⁻¹
kon: 10900 M⁻¹ s⁻¹
B2: Mutation 1-19 (antibody, V domains shown)
VH: B1 VH with I51L, S55T, K99R
VL: B1 VL with T27S, T28S, L47I, N93Q

Kd: 2.6 nM
koff: 4.92e-05 s⁻¹
kon: 18900 M⁻¹ s⁻¹
B6: Mutation 1-35 (antibody, V domains shown)
VH: B1 VH with S31T, S55T, K99R, Y101W
VL: B1 VL with T27S, T28S, L47I, S92T, N93Q

Kd: 1.76 nM
koff: 2.04e-05 s⁻¹
kon: 11600 M⁻¹ s⁻¹
B7: Mutation 1-23 (antibody, V domains shown)
VH: B1 VH with S55T, K63R, Y101W
VL: B1 VL with T27S, T28S, L47I

Kd: 2.75 nM
koff: 9.53e-05 s⁻¹
kon: 34700 M⁻¹ s⁻¹
B11: Mutation 1-33 (antibody, V domains shown)
VH: B1 VH with T30S, S55T, Y101F
VL: B1 VL with T28S, L47I, L53I

Kd: 5.57 nM
koff: 0.000118 s⁻¹
kon: 21200 M⁻¹ s⁻¹
B14: Mutation 1-46 (antibody, V domains shown)
VH: B1 VH with I51L, K99R, Y101F
VL: B1 VL with T28S, L47I

Kd: 9.92 nM
koff: 0.000262 s⁻¹
kon: 26100 M⁻¹ s⁻¹
B21: Mutation 1-21 (antibody, V domains shown)
VH: B1 VH with T30S, I51L, S55T, K63R, Y101F
VL: B1 VL with T28S, L47I, L53I, N93Q

Kd: 7.2 nM
koff: 0.000258 s⁻¹
kon: 35800 M⁻¹ s⁻¹
B22: Mutation 1-30 (antibody, V domains shown)
VH: B1 VH with I51L, K63R, K99R, Y101F
VL: B1 VL

Kd: 1.38 nM
koff: 2.3e-05 s⁻¹
kon: 16600 M⁻¹ s⁻¹
B23: Mutation 1-20 (antibody, V domains shown)
VH: B1 VH with T30S, S31T, I51L, K99R, Y101W
VL: B1 VL with T27S, L53I, N93Q

Kd: 4.42 nM
koff: 7.82e-05 s⁻¹
kon: 17700 M⁻¹ s⁻¹
B24: Mutation 1-13 (antibody, V domains shown)
VH: B1 VH with T30S, I51L, K63R, K99R
VL: B1 VL with T27S, T28S, L47I, L53I, S92T, N93Q

Kd: 2.03 nM
koff: 6.94e-05 s⁻¹
kon: 34100 M⁻¹ s⁻¹
B26: Mutation 1-47 (antibody, V domains shown)
VH: B1 VH with S31T, I51L, S55T, K99R
VL: B1 VL with L53I, S92T, N93Q

Kd: 8 nM
koff: 0.0004 s⁻¹
kon: 50000 M⁻¹ s⁻¹
B30: Mutation 1-53 (antibody, V domains shown)
VH: B1 VH with T30S, S55T, K63R
VL: B1 VL with L47I, S92T

Kd: 10.8 nM
koff: 0.000372 s⁻¹
kon: 34400 M⁻¹ s⁻¹
B31: WT 1-3 (antibody, V domains shown)
VH: B1 VH with G26D, S31T, S55T, D59E, Y101F, G105A
VL: B1 VL with T28S, V32A, L47I, T50S, Q89N

Kd: 51.5 nM
koff: 0.00131 s⁻¹
kon: 25500 M⁻¹ s⁻¹
B32: WT 1-6 (antibody, V domains shown)
VH: B1 VH with G26D, I51L, D59E, K63R, K99R, Y101F, G105A
VL: B1 VL with T27S, V32A, T50S, Q89N, S92T

Kd: 4.16 nM
koff: 0.000138 s⁻¹
kon: 33200 M⁻¹ s⁻¹
B33: Mutation 1-40 (antibody, V domains shown)
VH: B1 VH with T30S, S31T, I51L, K63R, K99R, Y101F
VL: B1 VL with T27S, L53I, S92T

Kd: 28.5 nM
koff: 0.000741 s⁻¹
kon: 26000 M⁻¹ s⁻¹
B36: WT 1-2 (antibody, V domains shown)
VH: B1 VH with G26D, D59E, K63R, K99R, Y101W, G105A
VL: B1 VL with T27S, V32A, T50S, Q89N, N93Q

Kd: 4.18 nM
koff: 6.9e-05 s⁻¹
kon: 16500 M⁻¹ s⁻¹
B38: Mutation 1-44 (antibody, V domains shown)
VH: B1 VH with T30S, S31T, K63R
VL: B1 VL with T27S, T28S, L47I, L53I, S92T
